Assay [1] addresses Ol1WSCP. Put plainly: SEC. In general terms: SEC sorts molecules by how far they enter the pores of the column.
The target of assay [2] is Ol1WSCP. Put plainly: SEC. The source holds these as a separate data set.

Read-outs that look alike come from different tables or passages of the source.

As usually defined, the stoichiometry N is the number of molecules, sites or subunits per partner or assembly. For the substance Ol1WSCP (natural protein), the stoichiometry N with Ol1WSCP [1] and in the assay with Ol1WSCP [2] was 4 each time.

For the origin of these results see article PMC7054047.
